Values of other authors, collected in article PMC6769837.

Tests used:
[1] = molecular target: integrin αvβ8 (Homo sapiens) (UniProt P06756)
[2] = molecular target: integrin αvβ6 (Homo sapiens) (UniProt P06756)
[3] = molecular target: integrin αvβ3 (Homo sapiens) (UniProt P06756)

Kd [1]: 0.013 nM | Kd [2]: 10.3 nM | Kd [3]: 8500 nM
Substance: LAP-TGFβ1 LAP (from UniProt P01137)
